Measurements as given in article PMC12013264 (mSystems, 2025).
In brackets after ≈: the same amount, converted by molar mass. Where two headings read alike, the source gives them in different places.

Key:
KPC-3 = biological target: T1, KPC-3 (Klebsiella pneumoniae, UniProt Q93DC4); assay: isothermal titration calorimetry; format: binding
T1 construct: gene bla; signal peptide (1-29) removed, KPC30-293 in pET28a, E. coli BL21 Rosetta-gami DE3, His-tag cut with thrombin
Description: isothermal titration calorimetry on KPC-3

E. coli DH10B = test system: T2, E. coli DH10B; assay: microbe, parasite or virus in culture; design: species or system E. coli DH10B or K. pneumoniae; CLSI standard broth microdilution MIC in triplicate, median values; details: Escherichia coli
T2 construct: DH10B empty plasmid control
Description: (§1) The blaKPC amplicons (full length) were cloned into the Tn4401a-pET28a plasmid between the BamHI (as the 5′ end upstream) and XbaI (as the 3′ end downstream) restriction sites, which is the opposite direction of conventional induced expression for removing the His-tag expression. This insertion was downstream of the blaKPC Tn4401a promoter. The Tn4401a promoter was inserted between the EcoRI and BamHI sites. KPC expression was achieved by inserting the natural promoter Tn4401a upstream of the blaKPC gene, thus avoiding the use of the pET-28a vector’s T7 promoter and the resulting His-tag fusion. E. coli DH10B strains containing the generated KPCs-Tn4401a-pET28a plasmid underwent antimicrobial susceptibility testing in triplicate using the standard broth microdilution, following the Clinical and Laboratory Standards Institute (CLSI) recommendations (CLSI M100-S34) . Klebsiella pneumoniae expressing KPC-3 and E. coli DH10B containing an empty plasmid served as positive and negative controls, respectively.

[1] = test system: T3, Klebsiella pneumoniae Kpn with KPC-3; assay: microbe, parasite or virus in culture; design: species or system E. coli DH10B or K. pneumoniae; CLSI standard broth microdilution MIC in triplicate, median values
T3 construct: K. pneumoniae producing KPC-3, positive control

[2] = test system: T4, E. coli DH10B carrying KPC-2-Tn4401a-pET28a; assay: microbe, parasite or virus in culture; design: species or system E. coli DH10B or K. pneumoniae; CLSI standard broth microdilution MIC in triplicate, median values; details: Escherichia coli
T4 construct: DH10B full-length blaKPC-2 under Tn4401a promoter in pET28a
Description: as §1, with “.” for “. Klebsiella pneumoniae expressing KPC-3 and E. coli DH10B containing an empty plasmid served as positive and negative controls, respectively.”

[3] = test system: T5, E. coli DH10B carrying KPC-3-Tn4401a-pET28a; assay: microbe, parasite or virus in culture; design: species or system E. coli DH10B or K. pneumoniae; CLSI standard broth microdilution MIC in triplicate, median values; details: Escherichia coli
T5 construct: DH10B full-length blaKPC-3 under Tn4401a promoter in pET28a
Description: as §1, with “.” for “. Klebsiella pneumoniae expressing KPC-3 and E. coli DH10B containing an empty plasmid served as positive and negative controls, respectively.”

[4] = test system: Cc1nnc(SCC2=C(C(=O)O)N3C(=O)[C@@H](NC(=O)Cn4cnnn4)[C@H]3SC2)s1; assay: purified protein; details: 100 mM sodium phosphate, pH 7.0, 37 °C
[5] = test system: CCN1CCN(C(=O)N[C@@H](C(=O)N[C@@H]2C(=O)N3[C@@H]2SC(C)(C)[C@@H]3C(=O)O)c2ccccc2)C(=O)C1=O; assay: purified protein; details: 100 mM sodium phosphate, pH 7.0, 37 °C
[6] = test system: C[C@@H](O)[C@H]1C(=O)N2C(C(=O)O)=C(SCCN=CN)C[C@H]12; assay: purified protein; details: 100 mM sodium phosphate, pH 7.0, 37 °C
[7] = test system: C[C@@H](O)[C@H]1C(=O)N2C(C(=O)O)=C(S[C@@H]3CN[C@H](C(=O)N(C)C)C3)[C@H](C)[C@H]12; assay: purified protein; details: 100 mM sodium phosphate, pH 7.0, 37 °C
[8] = test system: CC(C)(O/N=C(\C(=O)N[C@@H]1C(=O)N2C(C(=O)[O-])=C(C[n+]3ccccc3)CS[C@H]12)c1csc(N)n1)C(=O)O; assay: purified protein; details: 100 mM sodium phosphate, pH 7.0, 37 °C
[9] = test system: CO/N=C(\C(=O)N[C@@H]1C(=O)N2C(C(=O)[O-])=C(C[N+]3(C)CCCC3)CS[C@H]12)c1csc(N)n1; assay: purified protein; details: 100 mM sodium phosphate, pH 7.0, 37 °C

T1 sequence (Q93DC4 30-293 limits assumed): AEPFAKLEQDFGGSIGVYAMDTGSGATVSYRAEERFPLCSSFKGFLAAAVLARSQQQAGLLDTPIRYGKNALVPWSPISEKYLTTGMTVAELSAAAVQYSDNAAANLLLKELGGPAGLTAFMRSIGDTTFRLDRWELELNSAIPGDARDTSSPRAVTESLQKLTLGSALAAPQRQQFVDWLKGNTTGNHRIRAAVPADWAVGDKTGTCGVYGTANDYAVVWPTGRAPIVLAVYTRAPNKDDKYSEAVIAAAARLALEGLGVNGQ

NC(=O)[C@@H]1CC[C@@H]2CN1C(=O)N2OS(=O)(=O)O [avibactam]
Kd (KPC-3): 7.49 nM

C[C@H]1[C@H](NC(=O)/C(=N\OC(C)(C)C(=O)O)c2csc(N)n2)C(=O)N1S(=O)(=O)O [aztreonam]
MIC (E. coli DH10B; read-out: MIC (mg/L)^a / ATM): < 0.125 mg/L

Cc1nnc(SCC2=C(C(=O)O)N3C(=O)[C@@H](NC(=O)Cn4cnnn4)[C@H]3SC2)s1 [cefazolin]
MIC ([1]; read-out: MIC (mg/L)^a / CZO): > 256 mg/L | MIC ([2]; read-out: MIC (mg/L)^a / CZO): 256 mg/L (≈ 563 µM) | MIC ([3]; read-out: MIC (mg/L) ^a / CZO): 256 mg/L (≈ 563 µM) | MIC (E. coli DH10B; read-out: MIC (mg/L)^a / CZO): 2 mg/L (≈ 4.4 µM)

CO/N=C(\C(=O)N[C@@H]1C(=O)N2C(C(=O)[O-])=C(C[N+]3(C)CCCC3)CS[C@H]12)c1csc(N)n1 [cefepime]
MIC ([1]; read-out: MIC (mg/L)^a / FEP): > 256 mg/L | MIC ([2]; read-out: MIC (mg/L)^a / FEP): 4 mg/L (≈ 8.32 µM) | MIC ([3]; read-out: MIC (mg/L) ^a / FEP): 8 mg/L (≈ 16.6 µM) | MIC (E. coli DH10B; read-out: MIC (mg/L)^a / FEP): < 0.125 mg/L

CC(C)(O/N=C(\C(=O)N[C@@H]1C(=O)N2C(C(=O)[O-])=C(C[n+]3ccccc3)CS[C@H]12)c1csc(N)n1)C(=O)O [ceftazidime]
MIC ([1]; read-out: MIC (mg/L)^a / CAZ): > 256 mg/L | MIC ([2]; read-out: MIC (mg/L)^a / CAZ): 8 mg/L (≈ 14.6 µM) | MIC ([3]; read-out: MIC (mg/L) ^a / CAZ): 64 mg/L (≈ 117 µM) | MIC (E. coli DH10B; read-out: MIC (mg/L)^a / CAZ): 0.25 mg/L (≈ 0.457 µM)

CO/N=C(\C(=O)N[C@@H]1C(=O)N2C(C(=O)O)=C(CSc3nc(=O)c(O)nn3C)CS[C@H]12)c1csc(N)n1 [ceftriaxone]
MIC (E. coli DH10B; read-out: MIC (mg/L)^a / CRO): < 0.125 mg/L

CO/N=C(\C(=O)N[C@@H]1C(=O)N2C(C(=O)O)=C(COC(N)=O)CS[C@H]12)c1ccco1 [cefuroxime]
MIC ([1]; read-out: MIC (mg/L)^a / CXM): > 256 mg/L | MIC ([2]; read-out: MIC (mg/L)^a / CXM): > 256 mg/L | MIC ([3]; read-out: MIC (mg/L) ^a / CXM): > 256 mg/L | MIC (E. coli DH10B; read-out: MIC (mg/L)^a / CXM): 4 mg/L (≈ 9.43 µM)

C[C@@H](O)[C@H]1C(=O)N2C(C(=O)O)=C(SCCN=CN)C[C@H]12 [imipenem]
MIC ([1]; read-out: MIC (mg/L)^a / IPM): 16 mg/L (≈ 53.4 µM) | MIC ([2]; read-out: MIC (mg/L)^a / IPM): 1 mg/L (≈ 3.34 µM) | MIC ([3]; read-out: MIC (mg/L) ^a / IPM): 2 mg/L (≈ 6.68 µM) | MIC (E. coli DH10B; read-out: MIC (mg/L)^a / IPM): 0.25 mg/L (≈ 0.835 µM)

C[C@@H](O)[C@H]1C(=O)N2C(C(=O)O)=C(S[C@@H]3CN[C@H](C(=O)N(C)C)C3)[C@H](C)[C@H]12 [meropenem]
MIC ([1]; read-out: MIC (mg/L)^a / MEM): > 4 mg/L | MIC ([2]; read-out: MIC (mg/L)^a / MEM): 0.25 mg/L (≈ 0.652 µM) | MIC ([3]; read-out: MIC (mg/L) ^a / MEM): 0.25 mg/L (≈ 0.652 µM) | MIC (E. coli DH10B; read-out: MIC (mg/L)^a / MEM): < 0.0312 mg/L

CCN1CCN(C(=O)N[C@@H](C(=O)N[C@@H]2C(=O)N3[C@@H]2SC(C)(C)[C@@H]3C(=O)O)c2ccccc2)C(=O)C1=O [piperacillin]
MIC ([1]; read-out: MIC (mg/L)^a / PIP): > 256 mg/L | MIC ([2]; read-out: MIC (mg/L)^a / PIP): > 256 mg/L | MIC ([3]; read-out: MIC (mg/L) ^a / PIP): > 256 mg/L | MIC (E. coli DH10B; read-out: MIC (mg/L)^a / PIP): 2 mg/L (≈ 3.86 µM)

KPC-2 (Klebsiella pneumoniae)
Km [4]: 110 ± 3 µM | kcat [4]: 65 ± 5 s⁻¹ | kcat/Km [4]: 590000 ± 41000 M⁻¹ s⁻¹ | Km [5]: 793 ± 34 µM | kcat [5]: 7.7 ± 0.5 s⁻¹ | kcat/Km [5]: 9700 ± 900 M⁻¹ s⁻¹ | Km [6]: 98 ± 9 µM | kcat [6]: 28 ± 2 s⁻¹ | kcat/Km [6]: 290000 ± 10000 M⁻¹ s⁻¹ | Km [7]: 16 ± 1 µM | kcat [7]: 8 ± 0.5 s⁻¹ | kcat/Km [7]: 500000 ± 50000 M⁻¹ s⁻¹ | Km [8]: 590 ± 48 µM | kcat [8]: 3.27 ± 0.27 s⁻¹ | kcat/Km [8]: 5500 ± 400 M⁻¹ s⁻¹ | Km [9]: 310 ± 23 µM | kcat [9]: 4.7 ± 0.1 s⁻¹ | kcat/Km [9]: 15000 ± 1200 M⁻¹ s⁻¹

KPC-3 (Klebsiella pneumoniae)
Km [4]: 368 ± 16 µM | kcat [4]: 61 ± 2 s⁻¹ | kcat/Km [4]: 170000 ± 13000 M⁻¹ s⁻¹ | Km [5]: 1,097 ± 84 μM | kcat [5]: 5.2 ± 0.1 s⁻¹ | kcat/Km [5]: 4800 ± 400 M⁻¹ s⁻¹ | Km [6]: 64 ± 3 µM | kcat [6]: 33 ± 0.7 s⁻¹ | kcat/Km [6]: 520000 ± 34000 M⁻¹ s⁻¹ | Km [7]: 24 ± 1 µM | kcat [7]: 5.7 ± 0.4 s⁻¹ | kcat/Km [7]: 230000 ± 16000 M⁻¹ s⁻¹ | Km [8]: 233 ± 19 µM | kcat [8]: 2.7 ± 0.2 s⁻¹ | kcat/Km [8]: 11000 ± 1200 M⁻¹ s⁻¹ | Km [9]: 512 ± 48 µM | kcat [9]: 4.5 ± 0.3 s⁻¹ | kcat/Km [9]: 8900 ± 400 M⁻¹ s⁻¹
